Results from publication PMC2793330 (Journal of structural biology, 2009).

B1: Spc97p with YFP on its N-terminus (of γ-TuSC:YFPSpc97p) (natural protein, S. cerevisiae, UniProt P38863 1-823, looked up)
chain: MEIKEVDDRAELLRYTNNIPLLGKLVNHQPLWSTNPKLKSFSLEKISAPDQRRVQEALVVKDLLNVLIGLEGTYIRYFNDYEPSDPETPIEFKIAKKMDPSFKTFSRRIVRYGKQYMILTRAYEKWSDTSFGMVLQRFAYEIRRFLEDVYLKTLVERLERDFNKVPNFSIRELEQIINETEVNKQMELLYNIYEEIFREIEERRTNQSSQEDFNNFMDSMKNESSLHLRLMVAFDTTVYPVPKGGAILKIFQQKILENLGDRSSVMFLKKLLNNISQDYCTMLYEWLTQGILNDPYQEFMTYDDLEGKTDNIFDTRDRAWDTQYFIRKDVLLRDCDSEEDKNLLFKMLRTGILLKVVRASLQIPTIPSNSSDITIQEINDFADLMEGSNLELYVDKCYSRANEIFLKLFFQGYDLINVLKHLQQIFLGYQSGHNVLKFLTKNMGELTKHYRNDNNANYDKLLQNFELERQSENPNNLMRQLLMIQFDTETLPQVLSHYLQIYPEVPENNSANDDSDPLMHANNFKNMNAILFDELSKERTGAYHGSNLELYTPKSAIYHLKFDINIPYPLNIIISRTCMIKYQIILRYQLVLQYHSRLLDETWMDLNKTPSWKYRGYSHTVKRRIVRATRVLHAKMNHFIKTIMEYFNQNVIDKEVYSLEKCYRNPTLAVAIQNELEGGLTNIMTNRCLSDLIPLQLQIFDIVYKFCKFIKSMRAKLCQLDPVLYEKHKSGMMKTLNEGYRTNNGGQEDVGYQEDAALELIQKLIEYISNASSIFRKCLINFTQELSTEKFDFYDSSSVDAAGIERVLYSIVPPRSASASSQR
B2: Spc97p, without fluorescent protein tag (natural protein, S. cerevisiae, UniProt P38863 1-823, looked up)
chain: MEIKEVDDRAELLRYTNNIPLLGKLVNHQPLWSTNPKLKSFSLEKISAPDQRRVQEALVVKDLLNVLIGLEGTYIRYFNDYEPSDPETPIEFKIAKKMDPSFKTFSRRIVRYGKQYMILTRAYEKWSDTSFGMVLQRFAYEIRRFLEDVYLKTLVERLERDFNKVPNFSIRELEQIINETEVNKQMELLYNIYEEIFREIEERRTNQSSQEDFNNFMDSMKNESSLHLRLMVAFDTTVYPVPKGGAILKIFQQKILENLGDRSSVMFLKKLLNNISQDYCTMLYEWLTQGILNDPYQEFMTYDDLEGKTDNIFDTRDRAWDTQYFIRKDVLLRDCDSEEDKNLLFKMLRTGILLKVVRASLQIPTIPSNSSDITIQEINDFADLMEGSNLELYVDKCYSRANEIFLKLFFQGYDLINVLKHLQQIFLGYQSGHNVLKFLTKNMGELTKHYRNDNNANYDKLLQNFELERQSENPNNLMRQLLMIQFDTETLPQVLSHYLQIYPEVPENNSANDDSDPLMHANNFKNMNAILFDELSKERTGAYHGSNLELYTPKSAIYHLKFDINIPYPLNIIISRTCMIKYQIILRYQLVLQYHSRLLDETWMDLNKTPSWKYRGYSHTVKRRIVRATRVLHAKMNHFIKTIMEYFNQNVIDKEVYSLEKCYRNPTLAVAIQNELEGGLTNIMTNRCLSDLIPLQLQIFDIVYKFCKFIKSMRAKLCQLDPVLYEKHKSGMMKTLNEGYRTNNGGQEDVGYQEDAALELIQKLIEYISNASSIFRKCLINFTQELSTEKFDFYDSSSVDAAGIERVLYSIVPPRSASASSQR
B3: Spc97p with YFP on its C-terminus (of γ-TuSC:Spc97pYFP) (natural protein, S. cerevisiae, UniProt P38863 1-823, looked up)
chain: MEIKEVDDRAELLRYTNNIPLLGKLVNHQPLWSTNPKLKSFSLEKISAPDQRRVQEALVVKDLLNVLIGLEGTYIRYFNDYEPSDPETPIEFKIAKKMDPSFKTFSRRIVRYGKQYMILTRAYEKWSDTSFGMVLQRFAYEIRRFLEDVYLKTLVERLERDFNKVPNFSIRELEQIINETEVNKQMELLYNIYEEIFREIEERRTNQSSQEDFNNFMDSMKNESSLHLRLMVAFDTTVYPVPKGGAILKIFQQKILENLGDRSSVMFLKKLLNNISQDYCTMLYEWLTQGILNDPYQEFMTYDDLEGKTDNIFDTRDRAWDTQYFIRKDVLLRDCDSEEDKNLLFKMLRTGILLKVVRASLQIPTIPSNSSDITIQEINDFADLMEGSNLELYVDKCYSRANEIFLKLFFQGYDLINVLKHLQQIFLGYQSGHNVLKFLTKNMGELTKHYRNDNNANYDKLLQNFELERQSENPNNLMRQLLMIQFDTETLPQVLSHYLQIYPEVPENNSANDDSDPLMHANNFKNMNAILFDELSKERTGAYHGSNLELYTPKSAIYHLKFDINIPYPLNIIISRTCMIKYQIILRYQLVLQYHSRLLDETWMDLNKTPSWKYRGYSHTVKRRIVRATRVLHAKMNHFIKTIMEYFNQNVIDKEVYSLEKCYRNPTLAVAIQNELEGGLTNIMTNRCLSDLIPLQLQIFDIVYKFCKFIKSMRAKLCQLDPVLYEKHKSGMMKTLNEGYRTNNGGQEDVGYQEDAALELIQKLIEYISNASSIFRKCLINFTQELSTEKFDFYDSSSVDAAGIERVLYSIVPPRSASASSQR

What was measured:
Test in all cases: co-purification, SDS-PAGE with band densitometry
[1] = molecular target: T1, Spc98p, without fluorescent protein tag (S. cerevisiae, UniProt P53540 1-846)
T1 sequence (looked up): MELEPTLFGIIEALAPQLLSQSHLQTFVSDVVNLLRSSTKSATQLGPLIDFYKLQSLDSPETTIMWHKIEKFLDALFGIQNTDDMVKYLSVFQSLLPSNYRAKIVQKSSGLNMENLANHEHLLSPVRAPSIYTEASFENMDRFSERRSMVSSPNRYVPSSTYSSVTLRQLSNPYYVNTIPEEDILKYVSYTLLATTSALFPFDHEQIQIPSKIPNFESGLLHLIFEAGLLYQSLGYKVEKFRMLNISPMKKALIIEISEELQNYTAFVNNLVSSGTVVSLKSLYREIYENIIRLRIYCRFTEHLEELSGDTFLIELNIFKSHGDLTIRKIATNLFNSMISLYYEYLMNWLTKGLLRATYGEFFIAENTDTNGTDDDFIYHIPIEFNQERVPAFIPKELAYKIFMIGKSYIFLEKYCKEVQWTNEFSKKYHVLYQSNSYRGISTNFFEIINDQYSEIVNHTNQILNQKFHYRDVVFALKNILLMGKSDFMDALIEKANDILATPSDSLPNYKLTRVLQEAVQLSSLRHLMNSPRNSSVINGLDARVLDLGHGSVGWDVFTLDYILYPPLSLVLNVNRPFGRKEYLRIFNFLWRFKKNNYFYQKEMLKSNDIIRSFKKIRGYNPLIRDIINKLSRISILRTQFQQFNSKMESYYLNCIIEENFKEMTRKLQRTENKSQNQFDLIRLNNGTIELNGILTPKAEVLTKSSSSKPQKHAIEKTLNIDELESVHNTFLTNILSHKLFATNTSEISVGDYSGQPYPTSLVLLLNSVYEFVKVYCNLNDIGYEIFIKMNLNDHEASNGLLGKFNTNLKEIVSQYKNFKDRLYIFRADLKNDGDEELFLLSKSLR

[2] = molecular target: T2, Spc98p with CFP on its C-terminus (of γ-TuSC:Spc98pCFP) (S. cerevisiae, UniProt P53540 1-846)
T2 sequence (looked up): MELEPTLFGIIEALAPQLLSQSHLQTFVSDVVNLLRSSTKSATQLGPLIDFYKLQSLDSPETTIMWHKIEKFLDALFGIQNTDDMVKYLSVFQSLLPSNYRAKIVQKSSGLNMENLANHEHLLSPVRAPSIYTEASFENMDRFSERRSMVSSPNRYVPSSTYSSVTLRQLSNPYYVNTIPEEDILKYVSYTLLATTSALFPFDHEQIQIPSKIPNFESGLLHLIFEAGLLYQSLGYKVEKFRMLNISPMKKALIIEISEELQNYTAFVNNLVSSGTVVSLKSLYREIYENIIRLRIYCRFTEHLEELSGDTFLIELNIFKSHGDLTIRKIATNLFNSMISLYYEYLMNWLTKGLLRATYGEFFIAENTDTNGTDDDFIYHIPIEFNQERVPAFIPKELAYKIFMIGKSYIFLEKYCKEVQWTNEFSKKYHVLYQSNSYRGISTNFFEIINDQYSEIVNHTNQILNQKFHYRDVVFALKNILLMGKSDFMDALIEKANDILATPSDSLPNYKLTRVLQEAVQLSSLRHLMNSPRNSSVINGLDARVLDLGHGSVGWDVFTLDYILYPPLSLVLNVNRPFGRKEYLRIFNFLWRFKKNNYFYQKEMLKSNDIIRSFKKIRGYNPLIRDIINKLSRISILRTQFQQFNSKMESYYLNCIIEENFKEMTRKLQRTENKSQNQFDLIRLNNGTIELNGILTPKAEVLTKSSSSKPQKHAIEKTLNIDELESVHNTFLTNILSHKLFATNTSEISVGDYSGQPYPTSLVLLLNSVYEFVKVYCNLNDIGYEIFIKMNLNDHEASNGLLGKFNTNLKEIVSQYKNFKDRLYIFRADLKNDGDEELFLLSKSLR

[3] = molecular target: T3, Spc98p with CFP on its N-terminus (of γ-TuSC:CFPSpc98p) (S. cerevisiae, UniProt P53540 1-846)
T3 sequence (looked up): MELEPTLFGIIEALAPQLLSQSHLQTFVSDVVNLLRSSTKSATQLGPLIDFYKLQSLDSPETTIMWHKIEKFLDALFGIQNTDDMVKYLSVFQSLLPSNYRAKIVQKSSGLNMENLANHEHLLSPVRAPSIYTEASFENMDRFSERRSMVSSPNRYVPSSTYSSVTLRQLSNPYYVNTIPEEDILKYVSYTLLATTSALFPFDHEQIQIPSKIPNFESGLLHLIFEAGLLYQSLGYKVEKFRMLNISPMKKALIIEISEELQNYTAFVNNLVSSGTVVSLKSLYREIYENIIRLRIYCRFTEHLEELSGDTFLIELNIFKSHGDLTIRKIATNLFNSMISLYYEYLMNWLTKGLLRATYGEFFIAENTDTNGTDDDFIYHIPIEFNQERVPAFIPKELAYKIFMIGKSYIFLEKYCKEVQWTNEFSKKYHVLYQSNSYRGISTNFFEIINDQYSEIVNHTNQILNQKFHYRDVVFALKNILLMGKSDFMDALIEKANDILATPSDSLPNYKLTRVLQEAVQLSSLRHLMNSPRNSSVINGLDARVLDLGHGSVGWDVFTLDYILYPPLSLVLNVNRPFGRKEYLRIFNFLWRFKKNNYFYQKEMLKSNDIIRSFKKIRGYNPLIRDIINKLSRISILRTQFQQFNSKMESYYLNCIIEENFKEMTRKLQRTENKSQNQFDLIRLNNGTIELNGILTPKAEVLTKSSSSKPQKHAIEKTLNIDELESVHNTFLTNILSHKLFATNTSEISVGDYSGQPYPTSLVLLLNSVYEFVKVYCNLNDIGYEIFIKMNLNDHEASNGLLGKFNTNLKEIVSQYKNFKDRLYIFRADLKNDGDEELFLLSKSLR

[4] = molecular target: B1
[5] = molecular target: B2
[6] = molecular target: B3

Row | Binder | stoichiometry N [1] | stoichiometry N [2] | stoichiometry N [3] | stoichiometry N [4] | stoichiometry N [5] | stoichiometry N [6]
1 | B1 | 1 | – | – | – | – | –
2 | B2 | 1 | 1 | 1 | – | – | –
3 | B3 | 1 | – | – | – | – | –
4 | γ-tubulin (Tub4p), His-tagged, as in the fluorescent-protein-tagged γ-TuSC constructs (natural protein, S. cerevisiae, UniProt P53378 1-473, looked up) MGGEIITLQAGQCGNHVGKFLWSQLAKEHAIGTDGLSQLPDSSTERDDDTKPFFRENSRNKFTPRAIMMDSEPSVIADVENTFRGFFDPRNTWVASDGASAGNSWANGYDIGTRNQDDILNKIDKEIDSTDNFEGFQLLHSVAGGTGSGLGSNLLEALCDRYPKKILTTYSVFPARSSEVVVQSYNTILALRRLIEDSDATVVFDNASLLNISGKVFRNPNIDLQHTNQLISTIISSVTNSIRFPSYMYSSMSSIYSTLIPSPELHFLSPSFTPFTSDYIHDDIAHKGHSSYDVMLDLLDPSNSLVSTAMNNPTYFNVYNTIIGNVEPRQISRAMTKLQQRIKFPSWSSSAMHVNIGRRSPYLPLQPNENEVSGMMLSNMSTVVNVFENACNTFDKVFAKGAFLNNYNVGDLFQSMQNVQDEFAESREVVQSLMEDYVAAEQDSYLDDVLVDDENMVGELEEDLDADGDHKLV | 2 | 2 | 2 | 2 | 2 | 2
5 | γ-tubulin (Tub4p), His-tagged with the longer tag linker, as in the γ-TuSC without fluorescent protein tag (natural protein, S. cerevisiae, UniProt P53378 1-473, looked up) MGGEIITLQAGQCGNHVGKFLWSQLAKEHAIGTDGLSQLPDSSTERDDDTKPFFRENSRNKFTPRAIMMDSEPSVIADVENTFRGFFDPRNTWVASDGASAGNSWANGYDIGTRNQDDILNKIDKEIDSTDNFEGFQLLHSVAGGTGSGLGSNLLEALCDRYPKKILTTYSVFPARSSEVVVQSYNTILALRRLIEDSDATVVFDNASLLNISGKVFRNPNIDLQHTNQLISTIISSVTNSIRFPSYMYSSMSSIYSTLIPSPELHFLSPSFTPFTSDYIHDDIAHKGHSSYDVMLDLLDPSNSLVSTAMNNPTYFNVYNTIIGNVEPRQISRAMTKLQQRIKFPSWSSSAMHVNIGRRSPYLPLQPNENEVSGMMLSNMSTVVNVFENACNTFDKVFAKGAFLNNYNVGDLFQSMQNVQDEFAESREVVQSLMEDYVAAEQDSYLDDVLVDDENMVGELEEDLDADGDHKLV | 2 | – | – | – | 2 | –
